Square brackets hold non-standard residues; d marks the D form. Ends that are not written are not given here.
T1: mu opioid receptor (rat, UniProt P33535)
T1 chain: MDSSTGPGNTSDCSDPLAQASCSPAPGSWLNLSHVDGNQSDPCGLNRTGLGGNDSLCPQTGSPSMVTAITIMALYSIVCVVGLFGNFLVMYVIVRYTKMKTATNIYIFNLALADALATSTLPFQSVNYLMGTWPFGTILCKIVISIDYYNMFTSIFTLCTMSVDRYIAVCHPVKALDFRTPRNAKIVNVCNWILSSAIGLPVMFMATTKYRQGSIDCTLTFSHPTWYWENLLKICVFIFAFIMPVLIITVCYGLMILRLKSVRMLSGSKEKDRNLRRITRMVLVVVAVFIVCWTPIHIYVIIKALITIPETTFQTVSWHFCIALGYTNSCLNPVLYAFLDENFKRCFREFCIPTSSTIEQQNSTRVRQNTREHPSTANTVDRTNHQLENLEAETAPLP

T2: delta opioid receptor (rat, UniProt P33533)
T2 chain: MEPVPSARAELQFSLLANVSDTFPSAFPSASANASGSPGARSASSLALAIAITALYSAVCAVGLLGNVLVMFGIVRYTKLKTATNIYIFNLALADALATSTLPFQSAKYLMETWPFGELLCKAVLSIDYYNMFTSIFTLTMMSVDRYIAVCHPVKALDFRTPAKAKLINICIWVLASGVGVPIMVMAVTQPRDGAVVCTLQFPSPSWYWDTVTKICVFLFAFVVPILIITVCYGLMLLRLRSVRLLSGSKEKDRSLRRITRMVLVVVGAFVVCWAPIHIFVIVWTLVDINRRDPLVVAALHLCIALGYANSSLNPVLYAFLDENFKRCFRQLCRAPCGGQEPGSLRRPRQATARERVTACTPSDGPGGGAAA


How the values were obtained:
[1] = molecular target: T1, mu opioid receptor; assay: competition, radioligand, 25C
[2] = molecular target: T2, delta opioid receptor; assay: competition, radioligand, 25C

binding result [1] | binding result [2] | Binder
no binding | no binding | YC[dF]G-NH2 (also: rhenium complex) [Tyr-Cys-D-Phe-Gly-NH2]
no binding | no binding | YG[dF]C-NH2 (also: rhenium complex) [Tyr-Gly-D-Phe-Cys-NH2]
